Laboratory results as given in US9658208B2, “Methods and G proteins for screening and identifying ligands of G protein-coupled receptors” (Fred Hutchinson Cancer Research Center, priority 2011, dated 2017).

Experiments:
[1] = target: T1, M2AchR (Rattus norvegicus, UniProt P10980); experiment: CRE-SEAP reporter gene assay, stably versus transiently expressed chimeric G proteins; format: cell-based; settings: cells transiently expressing the chimera construct, 10 uM acetylcholine
T1 construct: expressed in transfected cells; host or cells: HEK-293 (chimera stably or transiently expressed; M2AchR transiently transfected)
T1 sequence (P10980 1-466): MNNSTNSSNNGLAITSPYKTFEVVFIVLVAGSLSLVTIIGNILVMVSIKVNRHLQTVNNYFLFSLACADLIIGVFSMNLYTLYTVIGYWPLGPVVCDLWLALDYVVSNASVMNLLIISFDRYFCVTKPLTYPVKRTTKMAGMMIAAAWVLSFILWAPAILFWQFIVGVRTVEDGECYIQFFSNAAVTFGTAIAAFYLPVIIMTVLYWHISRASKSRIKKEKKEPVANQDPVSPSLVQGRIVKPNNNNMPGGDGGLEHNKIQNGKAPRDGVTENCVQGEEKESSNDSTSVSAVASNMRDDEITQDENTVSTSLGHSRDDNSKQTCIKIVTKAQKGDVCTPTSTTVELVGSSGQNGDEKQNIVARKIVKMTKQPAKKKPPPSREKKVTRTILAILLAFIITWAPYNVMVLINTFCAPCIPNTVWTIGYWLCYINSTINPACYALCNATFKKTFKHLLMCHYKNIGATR
Protocol: The ligand-induced SEAP activity for cells stably transfected and expressing Gαs-based chimeric G proteins was compared with that of cells transiently expressing Gαs-based chimeric G proteins. Stable expression is achieved by integration of the construct of interest into the target cell's chromosome. Cell lines were prepared that stably expressed Gαs-Gαt-13, Gαs-Gαi-13, and Gαs-Gαo-13 G protein chimeras. […] Therefore, cell lines stably expressing the Gαs-based chimeric G proteins can provide enhanced sensitivity for the screening and identification of GPCR ligands.
Preparation of cells stably expressing G protein chimeras: HEK-293 cells were transfected with each of the G protein chimeras of interest. Following transfection, the cells were split and diluted in media containing 0.7 mg/ml neomycin (Gibco). Cells were grown until clones could be picked. At least 25 clones from each of the stables were picked, and tested for their suitability as sensor cell lines, by transfecting them with CRE-SEAP and cDNA encoding the M2AchR receptor. Those stables that elicited the maximal signal to noise following activation of the GPCRs were chosen and maintained. […]
(§1) Following transfection, the cells were maintained for 48 hours in 200 ul serum free media containing 10 uM acetylcholine (Sigma). […] Fluorescence was then measured using a CytoFluor 4000 multi well plate reader (Applied Biosystems).

[2] = target: T2, M2 muscarinic acetylcholine receptor (M2AchR) (Rattus norvegicus, UniProt P10980); experiment: CRE-SEAP reporter gene assay, coupling of Gαs-based chimeric G proteins with M2AchR (transient); format: cell-based; settings: HEK-293 cells; 10 uM acetylcholine
T2 construct: expressed in transfected cells; host or cells: HEK-293
T2 sequence (P10980 1-466): T1 sequence (P10980 1-466)
Protocol: The constructs encoding chimeric G proteins were made by substituting C-terminal amino acids of Gαs (SEQ ID NO: 1) with the corresponding C-terminal amino acid sequences of other Gα subunits. A first set of Gαs-based chimeric G proteins was prepared by designing constructs encoding seven Gαs-Gαi chimeras in which the C-terminal 5, 11, 13, 28, 65, 84, or 131 amino acids of Gαs were substituted with the corresponding C-terminal amino acids from the […]. Briefly, HEK-293 cells were cotransfected with chimera constructs together with the CRE-SEAP reporter gene construct and a cDNA encoding the M2 muscarinic acetylcholine receptor (M2AchR), a GPCR that couples to Gαo but not to Gαs and inhibits cAMP production. The transfected cells were cultured in the presence or absence of acetylcholine and then assayed for SEAP activity.
A series of chimeric constructs were prepared in which the final 13 C-terminal amino acids of the Gαs subunit were substituted with the final 13 C-terminal amino acids from Gαo, Gαz, Gαt, Gαq, or Gα15 subunits. Also tested were the Gαs-Gαi-13 and a chimera containing the last 5 C-terminal amino acids of Gαk (Gαs-Gαk-5 (SEQ ID NO: 2)). These chimeric constructs were tested for coupling with M2AchR. […] The Gαs-Gαo-13 (SEQ ID NO: […]) and Gαs-Gα15-13 (SEQ ID NO: 7) allowed approximately 2-fold increases in SEAP activity.
Chimeric G protein cloning: An insert containing rat Gαs cDNA was cut out using the restriction enzymes SaII and HinDIII, and ligated into pcDNA3.1(−) cut with XhoI and HinDIII. The chimeric G proteins with the desired C-terminal amino acid substitutions were prepared by PCR using Gαs as a template. More specifically, Gαs was PCR amplified between an internal EcoRI site and the stop codon, with a 3′ HinDIII placed immediately after the stop codon. A different 3′ oligonucleotide was used for each Gαs chimera and contained a 39 bp sequence that encoded the substituted amino acids at the C-terminus selected from the donor Gα subunit.
M2AchR GPCR cloning: Rat M2AchR receptor was cloned by PCR from cDNA templates (ATCC) and ligated into pcDNA 3.1(−) for expression in mammalian cells.
CRE-SEAP Reporter Gene Assay: 0.5×10^5 HEK-293 cells (ATCC) were seeded into each well of a 96 well plate 24 hours prior to transfection. cDNAs encoding M2AchR, SEAP reporters (Mercury Pathway Profiling System, BD Biosciences), and G protein chimeras were transfected into HEK-293 cells using lipofectamine reagent (Invitrogen) according to the manufacturer's protocols. […]
as §1

B1: Gαs-Gαt-13: Gαs-based chimeric G protein, final 13 C-terminal amino acids substituted with those of Gαt (protein)
chain: MGCLGNSKTEDQRNEEKAQREANKKIEKQLQKDKQVYRATHRLLLLGAGESGKSTIVKQMRILHVNGFNGEGGEEDVPDYASNSDGEKATKVQDIKNNLKEAIETIVAAMSNLVPPVELANPENQFRVDYILSVMNVPNFDFPPEFYEHAKALWEDEGVRACYERSNEYQLIDCAQYFLDKIDVIKQADYVPSDQDLLRCRVLTSGIFETKFQVDKVNFHMFDVGGQRDERRKWIQCFNDVTAIIFVVASSSYNMVIREDNQTNRLQEALNLFKSIWNNRWLRTISVILFLNKQDLLAEKVLAGKSKIEDYFPEFARYTTPEDATPEPGEDPRVTRAKYFIRDEFLRISTASGDGRHYCYPHFTCAVDTENIRRVFNDCRDIIIKENLKDCGLF
modifications: Chimeric protein
notes: Gαs-based chimeric G protein, final 13 C-terminal amino acids substituted with those of Gαt
Question: With B1 as the molecule, how does the “increase in SEAP activity” value [1] read?
Answer: approximately 10 fold

Question: What about the “ligand induced increases in SEAP activity mediated by M2AchR (in words)” value [2] of the same molecule?
Answer: highest responses
